Laboratory results from the DeepSol protein solubility set.

Assay: soluble on expression in E. coli; label from the status in PepcDB or PDB records

Sequence | soluble on expression in E. coli
MIEFRDVWFWYQEGKTVLKSISFSFSEGTLAIVGPNGSGKTTLVKMLNGLLKPKKGNVLIDGINTKEVSVAELSRIVGYVFQNPDAMFFEENVFKEVAFGPKNLGLNEEEVKKRVRWALEAVGLRGFENRNPFELSGGEKQRLAIACILAMKPKYLVLDEPNTGLDERGLQDLINVIKNLRREGSSIILVTHDIELVLEVADKVLLLKDGELKFFGSTKEFFELDLEGFGLKEPELVKISKDVGINFVRNVEELLKVIGL | soluble
MAHHHHHHMMSRFETSPRDRRYNSAVRSSLFSFVLRRRRNLHDKKKPPLSANGPLTSVVHPRARNHLPDEVNLTTTLVRSCFCINIAPLPARSCASYSPRCSEQTVSRFFPHPFTFRASAIRGHNARLQLRRCTHHFLETPL | not soluble
DLYRRQQGELKQTKLQNSILLSVSHDLRTPLATIIGTLTTLNEYMPKLNDLERKELLDSATSESHRLHQYIENLLQATKLQHGTLKITKKDEPIANIVRDAVSRLPNYTEKVSMNMDDSVGYLSVSRSL | not soluble
MAHHHHHHMSISVRIRTPKSSTPEQVELNSSGTWGEAAVLLSRKSEVALERLRVLAGFPPKAVDLAADSPLSALKLRANDMLIVQEGEAKVQLGNTGERYVPPAPERAHLTRRRCPADNSCLFHACAYVLRDKSRTEGPQLRQECVQAVLDHPEMFNVNTLGMDPLAYASWLSQKDTWGGAIELEILSFLYKTEMFALDLQSVTVQRFGTGLGYTVRAFLVYTGNHYDCIAMNPVYNSASEREDQTLFSSRDENVLVRAKRFVAEEGQKMKEGKAT | soluble
MGSDKIHHHHHHMPKSVQDDAIEAGTLLSVQGLTVGLPPGMDRRYAVEDMSFDLKAGEILCIIGESGSGKSVTANATMGLLAQSLHIVSGSIMLEGQELVGADAATLRALRGRIVSMIFQDPLSALNPLMTVGDQIAEVMEAHGIGTQQERRARVLDLITEVGLPDPELMQHQYPFRLSGGQRQRVMIAMALALEPKVLIADEPTTALDVTTQAQILELIASIQRRKQMSVMFITHDFGVVAEIADRVIVMEKGHVVEQGSASVVLKSPDHPYTQRLIAAVPRMRASDRENEADTPVVLEARNLCKTYGTGSGFLSKGRVIKAVDDVSFTIAKGRTLGIVGESGSGKSSLGRLLVKLMNSDSGEILFGGRDIAPLSEEAFRSMRPYIQMIFQDPFASLNPRQTIGRILTVGPVAQATPIHEARTRAMRLLERVGLDAGAYDRYPHEFSGGQRQRIGIARALMFNPMLIVADEAVSALDVSIQAQILQLLTEVQQEMKLAMAFITHDLRVASQICDEIAVMYKGRIVEYGPPSQIFRNPTHDYTRQLVSAIPGTEWEPAVMV | not soluble
MGSDKIHHHHHHMKFTPELESGVLIKRYKRFLADIMLPNGQEITIHCPNTGSMKNCLFPGEKVWFSTSDNPKRKYAHTWELMQTDQQHYIGINTGRANALAEEAINRQVITELLGYEHLKREVKYGSENSRIDILLTSQNRPECYIEVKSCTLLEDQMGYFPDAVTTRGQKHLRELIHMVELGHRAVLLFVVQHSAITSVKPARHIDPHYADLLEQAVANGVEVLAYKTALSPQGSLITSACKVML | not soluble
MFDAVKKIVLSYRVSPNRDTLSAIKAIDDVLRKLASLPDDLSFVVDGNPIYRLAQHFFAQHGISFDVRQVIGLTNEDPVSEEFRPLKQIIERFNRTFKGNYRPTHGFGAEEGSVSFVTLFVAYFNFLRPHSALEGRVPVVIPELADLPHMPARWTKLIAMAQAFLQQEAA | not soluble
MNLDELLLLIEKNRSQLSKIDDDFYEKLRERIAELEEMKSSAGESDFFRYEDEIRTLKRLQRKIFELRTGKIISAAWAEVCGQQFSSDVENMCSDERVFFKKLIDIIKEFKRSILEGGKRKISDRVLVRIKKDVEIQGADGKTYKLRREDVVTLPQLNADALIKGGIAERIEVKEDEVSQEGLEHHHHHH | soluble
MGSDKIHHHHHHVRCLNEEIARKANREDECKGAFWEGRFKSQALLDEQALLACMMYVDLNPIRAGIADSLQSSDFTSIQERISALKQVNNTIISPQAPVQSAKNKPQTINKSLAKFDAATHSSQQTGIPFHFADYLELIDWTGRTIRHDKKGFIDNQRPKLLNELGIASDAWLSSAKDFRRQYSGISGRWDAMCAFKLQQGGKWCRGKSSCEALHPNQPLG | not soluble
MPNVIGVQFQKAGKLEYYTPNDIQVDIDDWVVVESKRGIEIGIVKNPLMDIAEEDVVLPLKNIIRVADDKDIDKFNCNERDAENALILCKDIVREQGLDMRLVNCEYTLDKSKVIFNFTADDRIDFRKLVKILAQHLKTRIELRQIGVRDEAKLLGGIGPCGRSLCCSTFLGDFEPVSIKMAKDQNLSLNPTKISGACGRLMCCLKYENDYYEEVRAQLPDIGEAIETPDGNGKVVALNILDISMQVKLEGHEQPLEYKLEEIETMHLEHHHHHH | not soluble
GGGPFIVVAHSQGSMIAYHVLRQLKKADCDVRLFITIGSPLGIQEAQDVLGKIGSGKPLAVPECVDRWLNVAERLDPVALDSDLGNDYQPNSHGVKIENHAGLMINPEWASNPHSGTGYLSLDIVRQAVRETAGPTFSNPVGRNILMKDLVDNIEDGHREQRHPTLIQLVSDDDDATSLDEVRDRLSNLIKNVL | not soluble
GPGSMAEEKIKIIVVGSVKSGKTTITNFLSGTRETATSKYYETNPLRIVETEIELDSMNFTDRRVVFSGGDAKTKRVLVQIWDLSGNSKHQAGWPAVANKADGIIFVFNPALKNGEKELSLWHKTFAVNQSELDALGNFAVRVPDKHCLVFAHHSTPPSNVAGEGLPSMPKGLEKIKVLETSLDYHSDNFKAAFDKLIESIVVARMEAEEDEVLQREGRMHF | soluble
DVIELTDDSFDKNVLDSEDVWMVEFYAPWCGHCKNLEPEWAAAASEVKEQTKGKVKLAAVDATVNQVLASRYGIRGFPTIKIFQKGESPVDYDGGRTRSDIVSRALDLFSDNAPPPELLE | soluble
MTTMPQRESTIAVPDDRRKQLGAFLRARRESLDPQRLGLPRVGRRRTPGLRREEVAMLADVGVTWYTWLEQGREVNPSEAVLVGVANALQCSPLETRHLFVLAGLTPPEATQVTVCEGISPGTRRMLDSLMPQPASIQKPNFDIVAWNDSFCRLMGIDFATLPEEDRNCIYLYLTHETWRSRIENRDVLPTFVSYFRAAMAEHRGDPAWENKLARFFAASSEFEALWHQRYEVRGVENQIKHFNHPQLGRFSLQQMYWYSAPRNGSRLLVYLPMDEAGEQALAWLDQH | not soluble
MGSDKIHHHHHHMMERLIIDDSRFNFVPKVKTAYKAPPGLDEKLIMEISRAKDEPEWMLKHRLESLKVFNEWHNPRFGVDISGLDLGKIVSYIKPDAKKSTSWEEVPEEVKEAFDKLGIPEAERKYLAGVGAQLDSEIVYQNMKKELEKMGVIFLDMESAVREYPDLVKKYFMKLVPITDHKFAALHGAIWSGGTFLYVPAGVKIPMPLQAYFLMSNPGMGQFEHTIIVAEEGSEVTFIEGCSAPRYNIINLHAGMVEIYVKKGAKVKYLTIQNWSKNTYNLNTKRSIVDEEGSMTWVSGSLGSQKTMLYPMTILKGKGARAESMSITYAGPGQHMDTGSKVVHLAPYTSSIVSAKSISLGGGWAFYRGLLKITKEAVKSKASVECAALMLDNRSKSDTVPIIEVETDRADVGHEARIGRIGEDQIFYLMSRGLSEQEAKAMIVKGFVEPVVKELPFEYAVELNKLLELEIEKSIG | not soluble
MSLSYEYFPGFYDRLMDSELYDEWLEFSADFIGDTSKKVLDLACGTAEFALRLSFLGHQVTGVDLSKEMVAVAKEKVAAAEINLSILEQDMSKLALNQTFDVITCFCDSLNYLETEQALENTIKAVSDHLTPNGLFLFDVHSVFKIDQGFKDYSYGDSDEEISIIWNSFPGEYPHSVEHELTFYILGEDNMYNRVDELHKERTYPITTYKELLKKYGFSKIDVYADFSHENPTNSSERIFFVARKEGHHHHHH | soluble
MFRREIQERENWRELARQFGFGFHSMYGQPYWDESAYYQFTLEQIEHDLESPTEELHQMCLSIVDEVVRCEQLLTKCAIPELMWEQVASSWQRKEPSLYSRLDFAYNGTSPAKLLENNADTPTSLFETGFWQWVWLEDVVNKGRIHQAADQFNILQDFLIERFAEIAKYQPGQTLHFSCCKYTEEDKATVQYLEDCAREVGLATAFVYVEDIGVTEDGKFVDVDRRAIRWMFKLYPWEFMFEEEYAKYLATANVNWLEPMWKSILSNKALLPLLWERFPNHPNLLPAYFANDPNASCLNDYVIKPLFSREGANIEIVKDGKRLVKTPGPYESKFNIVQKYHPLPKFGQNHTLIGSWLVNDRAAGISIREDSSLVTQDMARYIPHVILT | not soluble
